The text below walks through data of article PMC6056499, “A systematic dissection of sequence elements determining β-Klotho and FGF interaction and signaling” (Scientific Reports, 2018).

In one test the target is mature human FGF21 (UniProt Q9NSA1). In words: solid-phase binding assay. As to conditions: β-Klotho captured from conditioned media; parent: est. 1.0; read off a plot.
Test [1] addresses human β-Klotho extracellular domain (aa1–992) fused with a 6 × His tag at the C-terminus (UniProt Q86Z14). In words: AlphaScreen. As to conditions: parent: est. 1.0, read off a plot. (In Alpha technology, singlet oxygen from a donor bead excites a nearby acceptor bead.)
Where [2] appears, read: competition with FGF19 for β-Klotho.
Where [3] appears, read: competition with FGF21 for β-Klotho.

Chain of human β-Klotho extracellular domain (aa1–992) fused with a 6 × His tag at the C-terminus (Q86Z14 53-992): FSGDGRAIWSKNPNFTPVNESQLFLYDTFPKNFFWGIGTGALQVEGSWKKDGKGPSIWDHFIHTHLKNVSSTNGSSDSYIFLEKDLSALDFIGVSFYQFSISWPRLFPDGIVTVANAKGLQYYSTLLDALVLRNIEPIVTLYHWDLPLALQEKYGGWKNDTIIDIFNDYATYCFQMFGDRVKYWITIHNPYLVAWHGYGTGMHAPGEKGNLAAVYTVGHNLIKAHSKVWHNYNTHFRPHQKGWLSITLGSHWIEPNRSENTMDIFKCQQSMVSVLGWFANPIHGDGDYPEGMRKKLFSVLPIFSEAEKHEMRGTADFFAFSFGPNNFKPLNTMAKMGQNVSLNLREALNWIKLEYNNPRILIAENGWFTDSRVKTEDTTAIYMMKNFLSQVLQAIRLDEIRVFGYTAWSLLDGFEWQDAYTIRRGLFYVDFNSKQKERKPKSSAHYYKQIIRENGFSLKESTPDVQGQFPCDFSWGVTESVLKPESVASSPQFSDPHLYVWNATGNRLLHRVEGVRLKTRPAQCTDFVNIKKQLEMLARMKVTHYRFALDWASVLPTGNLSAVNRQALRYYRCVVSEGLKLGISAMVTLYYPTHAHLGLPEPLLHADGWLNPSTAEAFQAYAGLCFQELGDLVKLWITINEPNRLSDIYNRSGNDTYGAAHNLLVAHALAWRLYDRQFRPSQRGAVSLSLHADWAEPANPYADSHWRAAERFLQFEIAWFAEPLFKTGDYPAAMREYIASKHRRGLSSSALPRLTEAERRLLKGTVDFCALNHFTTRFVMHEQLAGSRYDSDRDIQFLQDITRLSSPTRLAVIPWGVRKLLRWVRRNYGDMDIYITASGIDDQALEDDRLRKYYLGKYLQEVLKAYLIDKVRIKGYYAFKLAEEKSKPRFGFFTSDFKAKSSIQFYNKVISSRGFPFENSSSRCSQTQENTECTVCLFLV
Chain of FGF19 C-terminal peptide, WT FGF19^185–216 (from UniProt O95750) 207E-A (O95750 185-216, change not shown): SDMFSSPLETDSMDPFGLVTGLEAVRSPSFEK
Chain of FGF19 C-terminal peptide, WT FGF19^185–216 (from UniProt O95750) 204T-A (O95750 185-216, change not shown): as above
Chain of FGF19 C-terminal peptide, WT FGF19^185–216 (from UniProt O95750) 189S-A (O95750 185-216, change not shown): as above
Chain of FGF19 C-terminal peptide, WT FGF19^185–216 (from UniProt O95750) 196S-A (O95750 185-216, change not shown): as above
Chain of FGF19 C-terminal peptide, WT FGF19^185–216 (from UniProt O95750) 192L-A (O95750 185-216, change not shown): as above
Chain of FGF19 C-terminal peptide, WT FGF19^185–216 (from UniProt O95750) 188F-A (O95750 185-216, change not shown): as above

Regarding “human β-Klotho extracellular domain (aa1–992) fused with a 6 × His tag at the C-terminus (from UniProt Q86Z14) 862L-R”, the ratio to parent with mature human FGF21 worked out at 25.

Turning to “human β-Klotho extracellular domain (aa1–992) fused with a 6 × His tag at the C-terminus (from UniProt Q86Z14) 431T-R”, the ratio to parent with mature human FGF21 amounted to 10.

As to “human β-Klotho extracellular domain (aa1–992) fused with a 6 × His tag at the C-terminus (from UniProt Q86Z14) 389G-R”, in the test with mature human FGF21, the ratio to parent was 3.5.

Regarding “human β-Klotho extracellular domain (aa1–992) fused with a 6 × His tag at the C-terminus (from UniProt Q86Z14) 437K-A”, the ratio to parent in the test with mature human FGF21 came out at 270.

As to “human β-Klotho extracellular domain (aa1–992) fused with a 6 × His tag at the C-terminus (from UniProt Q86Z14) 380K-A”, in the test with mature human FGF21, the ratio to parent was 35.

As for “human β-Klotho extracellular domain (aa1–992) fused with a 6 × His tag at the C-terminus (from UniProt Q86Z14) 381P-R”, in the test with mature human FGF21, the ratio to parent amounted to 21.

Consider “human β-Klotho extracellular domain (aa1–992) fused with a 6 × His tag at the C-terminus (from UniProt Q86Z14) 437K-R”, for which the ratio to parent with mature human FGF21 is 5.

“human β-Klotho extracellular domain (aa1–992) fused with a 6 × His tag at the C-terminus (from UniProt Q86Z14) 381P-A”: the ratio to parent with mature human FGF21 is 5.

As for “human β-Klotho extracellular domain (aa1–992) fused with a 6 × His tag at the C-terminus (from UniProt Q86Z14) 861R-A”, the ratio to parent in the test with mature human FGF21 is 15.

Take “human β-Klotho extracellular domain (aa1–992) fused with a 6 × His tag at the C-terminus (from UniProt Q86Z14) 531E-A”: the ratio to parent in the test with mature human FGF21 was found to be 4.5.

As to “human β-Klotho extracellular domain (aa1–992) fused with a 6 × His tag at the C-terminus (from UniProt Q86Z14) 389G-A”, the ratio to parent with mature human FGF21 worked out at 30.

“FGF19 C-terminal peptide, WT FGF19^185–216 (from UniProt O95750) 189S-A”: the ratio to parent stood at 1.7 in test [1] (setting [2]) and 1.3 in test [1] (setting [3]).

Turning to “FGF19 C-terminal peptide, WT FGF19^185–216 (from UniProt O95750) 196S-A”, the figures for the ratio to parent in test [1] (setting [2]) and in test [1] (setting [3]) were 9.8 and 13, respectively.

On to “human β-Klotho extracellular domain (aa1–992) fused with a 6 × His tag at the C-terminus (from UniProt Q86Z14) 862L-A”, for which the ratio to parent with mature human FGF21 stood at 6.

Consider “FGF19 C-terminal peptide, WT FGF19^185–216 (from UniProt O95750) 188F-A”, for which the figures for the ratio to parent in test [1] (setting [2]) and in test [1] (setting [3]) were 2.7 and 1.4, respectively.

For the substance “FGF19 C-terminal peptide, WT FGF19^185–216 (from UniProt O95750) 204T-A”, the ratio to parent was determined as 1.6 in test [1] (setting [2]) and 3.2 in test [1] (setting [3]).

As to “FGF19 C-terminal peptide, WT FGF19^185–216 (from UniProt O95750) 207E-A”, the ratio to parent was determined as 0.6 in test [1] (setting [2]) and 1.1 in test [1] (setting [3]).

Turning to “FGF19 C-terminal peptide, WT FGF19^185–216 (from UniProt O95750) 192L-A”, the ratio to parent in test [1] (setting [2]) stood at 11; in test [1] (setting [3]) it was 7.5.
